Measurements taken from US7655619B2, “Insulin-associated peptides with effects on cerebral health” (Thomas Jefferson University, priority 2002, dated 2010).

Tests used:
[1] = tested on: rats; assay: one-trial passive avoidance procedure (associative learning), intranasal pretreatment; format: in vivo, Male Sprague Dawley rats
Procedure: Passive avoidance was performed in an apparatus (MED Associates Inc., St. Albans, Vt.) consisting of one dark chamber and one light chamber that can be divided by a guillotine door. The training procedure was executed as previously described (N. Venable et al. Psychopharmacology 100, 215 (1990)). Rats were administered a 1.0 mA shock for 3 sec, mice a 0.5 mA shock for 5 sec. Retention tests were performed either at 1, 3 or 7 days post-pairing. Maximum latency was 600 sec for rats, 300 sec for mice.
A control group received vehicle (5% cyclodextrin) alone.

[2] = tested on: rats; assay: Morris Water Maze (spatial learning), intranasal administration; format: in vivo, Male Sprague Dawley rats
Procedure: Spatial learning was assessed using the Morris Water Maze (Morris et al. Nature, 1982, 297: 681). […] Animals were anaesthetized with isofluorane then administered peptide intra-nasally 20 min before testing. Rats were given four training trials. 48 h after training, a retention test was performed: rats were allowed to find the hidden platform for one trial. […] Latency to find the platform was considered a measure of retention of spatial learning.

[3] = blood glucose levels by glucometer after intranasal administration; conditions: doses 3-30 μg, twenty minutes after administration, vs vehicle
Procedure: Rats (N-5/group) were first anesthetized with isoflorane anesthesia and then administered vehicle (5% (2,6-DI—O-methyl)β-cyclodextrin) or insulin (3-30 μg, 28 USP units/mg) intra-nasally. Twenty minutes later, rats were sacrificed and blood glucose levels rapidly determined with a glucometer (Elite XL, Bayer).

[4] = tested on: rats; assay: locomotor activity in open field testing chamber; conditions: 3-30 μg intranasal, 30 minutes in open field chamber, data not shown
Procedure: Following pretreatment, the rats were placed for 30 minutes in an open field testing chamber (17″×17″×12″ H) where movement was detected every 50 ms by infrared photo beam emitter and detector strips at 1″ and 10″ from the bottom of the chamber. The activity chambers were lined to a PC computer and data was compiled via Activity Monitor Software (4.0, MED Associates, St. Albans, Vt.).

[5] = tested on: rats; assay: one-trial passive avoidance with insulin antagonist α2HSG alone or in combination; format: in vivo; conditions: for latency time in passive avoidance: compared to vehicle alone
Procedure: After a 20 minute pretreatment time, rats were placed in the light side of a two-chambered light/dark Plexiglas passive avoidance apparatus (MED Associates). Once the rat entered the dark chamber, a guillotine door was closed and a 1.0 mA shock (3 sec) was administered. The door was then raised and the rat was allowed to re-enter the light side. Latency (max 600 sec) to enter the dark chamber was taken as a measurement of associative learning.

Molecule	retention of associative learning (24 hours) ([1]; FIG. 9, 24 hours)	latency to enter the dark chamber (associative learning) ([1]; intranasal 10 μg dose, pretreatment 20 min, compared to vehicle)	latency to find hidden platform, retention test ([2]; intranasal 3 μg, 48 hours following training, compared to vehicle)	latency to find submerged platform, acquisition during training ([2]; intranasal 3-30 μg, four training trials, between groups incl. vehicle)	swimming speed ([2]; intranasal, compared to vehicle)	blood glucose levels [3]	distance traveled (locomotor activity) [4]	latency time in passive avoidance ([5]; insulin 10 μg alone intranasal)	latency time in passive avoidance ([5]; α2HSG 30 μg alone)	effect on enhancement of latency times by A-chain ([5]; α2HSG 30 μg in combination with A-chain 3 μg, intranasal)	effect on enhancement of latency times by insulin ([5]; α2HSG 3-30 μg in combination with insulin 10 μg, intranasal)
insulin: insulin from bovine pancreas (C254H377N65O75S6), 28 USP units/mg, from Sigma	enhances retention of associative learning	significantly (P<0.05) enhanced latency	significantly deceased latency	No significant differences occurred in acquisition between groups during training	do not affect swimming speed compared to vehicle	no significant differences between treatment groups	did not differ between treatments	enhanced latency time			
α2HSG: endogenous inhibitor of insulin receptor tyrosine kinase activity; insulin antagonist (protein, UniProt P02765 19-300; P02765 341-367, looked up) Alpha-2-HS-glycoprotein chain … 1: APHGPGLIYRQPNCDDPETEEAALVAIDYINQNLPWGYKHTLNQIDEVKVWPQQPSGELFEIEIDTLETTCHVLDPTPVARCSVRQLKEHAVEGDCDFQLLKLDGKFSVVYAKCDSSPDSAEDVRKVCQDCPLLAPLNDTRVVHAAKAALAAFNAQNNGSNFQLEEISRAQLVPLPPSTYVEFTVSGTDCVAKEATEAAKCNLLAEKQYGFCKATLSEKLGGAEVAVTCMVFQTQPVSSQPQPEGANEAVPTPVVDPDAPPSPPLGAPGLPPAGSPPDSHVL Alpha-2-HS-glycoprotein chain … 2: TVVQPSVGAAAGPVVPPCPGRIRHFKV									no difference between antagonist alone and vehicle alone	blocked enhancement of latency times by A-chain	blocked enhancement of latency times by insulin
